Laboratory results from the supplement of paper PMC9170038.

System: MS2 coat protein
Assay: apparent KD of MS2 coat protein; designed switch direction (-1 OFF switch, 1 ON switch): 1; higher = weaker reporter binding
Outline: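 Designed RNA switches with common flanks were transcribed on Illumina chips by stalled E. coli RNA polymerase and titrated with SNAP-549-labelled MS2 coat protein, from 0.7 or 1.5 nM doubling to 3 µM, in Tris-HCl pH 7.5 buffer with KCl, MgCl2, BSA, DTT, tRNA and Tween-20. Steps lasted 0.8–1.5 h (lowest) to 10–20 min (highest). Titrations ran without input, with 200 uM small-molecule ligand, or with an oligonucleotide input. Normalised cluster fluorescence was curve-fitted, and apparent KD is the per-design median over clusters.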

[1] = input ligand: microRNA oligo, concentration not stated
[2] = Eterna round: R95, input ligand: microRNA oligo, concentration not stated
[3] = Eterna round: R95, input ligand: FMN 200 uM
[4] = Eterna round: R95, input ligand: none

| Sequence | apparent KD of MS2 coat protein (input ligand: FMN 200 uM) [nM] | apparent KD of MS2 coat protein [1] [nM] | apparent KD of MS2 coat protein (input ligand: none) [nM] | apparent KD of MS2 coat protein [2] [nM] | apparent KD of MS2 coat protein [3] [nM] | apparent KD of MS2 coat protein [4] [nM] |
| --- | --- | --- | --- | --- | --- | --- |
| CCUAUAGCCACAGGAUAUGAGAACACGUUGAACGUACAUGAGGAUCACCCAUGUCGCCGAUCGACUUAGAAGGGUGGCCCUCGC [Eternabot solution 26] (Eterna round: R96, puzzle: Same State NG 2) | 34.4 | 37.9 | 29.4 | – | – | – |
| CGGCGCUGUCGAGAGGAUAUGCGGUGACGGACAUGAGGAUCACCCAUGUUAGCGAUAGCGUUACGGUAGAAGGCUCUACAGUCGC [Soteed Omei mod 10] (Eterna round: R96, puzzle: Same State 2) | 19.1 | 125 | 217 | – | – | – |
| CGGCGCUGUCGAGAGGAUAUGCGGUGACGGACAUGAGGAUCACCCAUGUUAGCGAUAGCGUUACGGUAGAAGGCUCUACAGUCGC [Soteed Omei mod 10] (puzzle: Same State 2) | – | – | – | 49.2 | – | – |
| CGGGUACAUGAGGAUCACCCAUGUUGGAGUAAUGCAGGAUAUGUGAGACGAGAAGAUAAAACAGAAGGGCAAGGAG [JR_SS!_Sub009] (puzzle: Same State 1) | – | – | – | 95 | 37.4 | 77.6 |
| CGUCCAGCCUGAGCUGGACAAAAGCAUGUACAUGAGGAUCACCCAUGUUCAUGUACAAGCUUUUUGCUCGUCUUAUU [salish99_208a_r3_050] (puzzle: Sensor for hsa-mir-208a) | – | – | – | 16.1 | 681 | 739 |
| CGUCCCUCCACAGGAUAUCGACCAUUAAAACGGCGAGAAGGGUGGCCACAUGAGGAUCACCCAUGUGGAAUUGGACAAGCUACC [Veonso] (Eterna round: R96, puzzle: Same State NG 1) | 127 | 23.9 | 127 | – | – | – |
| CGUCCGGCCUGUGCUGGCCGGCGGCUUGUACAUGAGGAUCACCCAUGUUCUUGUGCUGGCUUUUUGCUCGUCUUGUG [salish99_mir208a_022] (puzzle: Sensor for hsa-mir-208a) | – | – | – | 16.3 | 32.2 | 39.5 |
| CUCAAACAUGAGGAUCACCCAUGUGUUGUCAUGGGAGGAUAUCUAAGUUCGUUGUAGUCGGGAGAAGGCCUAUGUC [× ×•×ª×• ×ž×“×™× ×” × ×—×ª-11] (puzzle: Same State 1) | – | – | – | 182 | – | – |
| CUCAACAACACAGGAUAUCCAGGGAAAAGCCCUGGAGAAGGGUGACCAACAUGAGGAUCACCCAUGUGACGGCUAAACCGUCUG [Inususisre] (Eterna round: R96, puzzle: Same State NG 1) | 319 | 509 | 60.7 | – | – | – |
| CUCUUACAUGAGGAUCACCCAUGUGUUGUCGUGGGAGGAUAUCCUGGUUCGGUGGCGUUGGGAGAAGGCCUAUGUC [× ×•×ª×• ×ž×“×™× ×” × ×—×ª-18] (puzzle: Same State 1) | – | – | – | 378 | – | – |
| CUGAGCAAGCAAGGAUAUCACGUCGAAUAGACGUGAGAAGGUGCUCCUUACAUGAGGAUCACCCAUGUAUAACAUGAAGCUCAG [SSNG1/10-A1] (Eterna round: R96, puzzle: Same State NG 1) | 254 | 869 | 1260 | – | – | – |
| CUGAGCAAUCAAGGAUAUCACGUCGUUUAGACGUGAGAAGGUGAUCAUAACAUGAGGAUCACCCAUGUAUUACAUGAAGCUCAG [SSNG1/1-A3] (Eterna round: R96, puzzle: Same State NG 1) | 767 | 363 | 919 | – | – | – |
